In PMC3771946:

Tests used:
Assay in all cases: co-IP
[1] = target: untagged Cx43-Y230H+F268A+Y286H (S1+2+3) (rat) (UniProt P08050)
[2] = target: Cx43-F268A+Y286H-GFP (S2+3) (rat) (UniProt P08050)
[3] = target: untagged Cx43-F268A+Y286H (S2+3) (rat) (UniProt P08050)
[4] = target: untagged Cx43-ΔY265AY+ΔP283PGYKLV (S2+3) (rat) (UniProt P08050)
[5] = target: untagged Cx43-Y230H+ΔY265AY+ΔP283PGYKLV (S1+2+3) (rat) (UniProt P08050)
[6] = target: Cx43-ΔY265AY+ΔP283PGYKLV-GFP (S2+3) (rat) (UniProt P08050)
[7] = target: Cx43-Y230H+ΔY265AY+ΔP283PGYKLV-GFP (S1+2+3) (rat) (UniProt P08050)
[8] = target: Cx43-Y230H+F268A+Y286H-GFP (S1+2+3) (rat) (UniProt P08050)

Measured: amount coprecipitated, % of wild type, with m16 (% of wild type)

clathrin (from UniProt Q00610 1-1675) (complex)
< 10: [1] | [2] | [3] | [4] | [5] | [6] | [7] | [8]
